According to patent US20180086849A1 (Hoffmann-La Roche, published 2018):

T1: human CEA (Carcinoembryonic antigen) on cells (human, UniProt P06731 35-685)
T1 sequence (looked up): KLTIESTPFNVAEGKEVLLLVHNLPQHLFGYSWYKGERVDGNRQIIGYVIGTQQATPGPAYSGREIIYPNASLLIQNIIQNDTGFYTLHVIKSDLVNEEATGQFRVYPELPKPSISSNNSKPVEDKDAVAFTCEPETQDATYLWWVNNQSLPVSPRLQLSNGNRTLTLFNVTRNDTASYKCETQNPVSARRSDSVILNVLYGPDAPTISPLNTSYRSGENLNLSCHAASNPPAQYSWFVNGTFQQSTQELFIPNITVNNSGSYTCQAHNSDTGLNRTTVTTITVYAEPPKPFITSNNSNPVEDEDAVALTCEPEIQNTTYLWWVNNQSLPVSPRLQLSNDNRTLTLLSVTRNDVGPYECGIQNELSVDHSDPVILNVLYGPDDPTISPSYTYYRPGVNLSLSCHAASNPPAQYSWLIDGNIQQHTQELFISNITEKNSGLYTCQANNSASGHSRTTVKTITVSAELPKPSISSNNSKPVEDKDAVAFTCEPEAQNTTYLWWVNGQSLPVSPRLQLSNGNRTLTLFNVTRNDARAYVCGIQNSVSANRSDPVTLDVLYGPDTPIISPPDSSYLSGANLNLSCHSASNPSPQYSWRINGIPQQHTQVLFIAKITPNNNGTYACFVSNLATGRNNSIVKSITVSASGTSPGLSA


How the values were obtained:
Assay in all cases: cell-based or functional assay
[1] = target: T1, human CEA (Carcinoembryonic antigen) on …
[2] = target: T2, human MCSP (Melanoma-associated Chondroitin Sulfate Proteoglycan) on cells (human, UniProt Q6UVK1 30-2322)
[3] = target: T2, human MCSP (Melanoma-associated …); remark: listed apart in the source

T2 sequence (Q6UVK1 30-2322): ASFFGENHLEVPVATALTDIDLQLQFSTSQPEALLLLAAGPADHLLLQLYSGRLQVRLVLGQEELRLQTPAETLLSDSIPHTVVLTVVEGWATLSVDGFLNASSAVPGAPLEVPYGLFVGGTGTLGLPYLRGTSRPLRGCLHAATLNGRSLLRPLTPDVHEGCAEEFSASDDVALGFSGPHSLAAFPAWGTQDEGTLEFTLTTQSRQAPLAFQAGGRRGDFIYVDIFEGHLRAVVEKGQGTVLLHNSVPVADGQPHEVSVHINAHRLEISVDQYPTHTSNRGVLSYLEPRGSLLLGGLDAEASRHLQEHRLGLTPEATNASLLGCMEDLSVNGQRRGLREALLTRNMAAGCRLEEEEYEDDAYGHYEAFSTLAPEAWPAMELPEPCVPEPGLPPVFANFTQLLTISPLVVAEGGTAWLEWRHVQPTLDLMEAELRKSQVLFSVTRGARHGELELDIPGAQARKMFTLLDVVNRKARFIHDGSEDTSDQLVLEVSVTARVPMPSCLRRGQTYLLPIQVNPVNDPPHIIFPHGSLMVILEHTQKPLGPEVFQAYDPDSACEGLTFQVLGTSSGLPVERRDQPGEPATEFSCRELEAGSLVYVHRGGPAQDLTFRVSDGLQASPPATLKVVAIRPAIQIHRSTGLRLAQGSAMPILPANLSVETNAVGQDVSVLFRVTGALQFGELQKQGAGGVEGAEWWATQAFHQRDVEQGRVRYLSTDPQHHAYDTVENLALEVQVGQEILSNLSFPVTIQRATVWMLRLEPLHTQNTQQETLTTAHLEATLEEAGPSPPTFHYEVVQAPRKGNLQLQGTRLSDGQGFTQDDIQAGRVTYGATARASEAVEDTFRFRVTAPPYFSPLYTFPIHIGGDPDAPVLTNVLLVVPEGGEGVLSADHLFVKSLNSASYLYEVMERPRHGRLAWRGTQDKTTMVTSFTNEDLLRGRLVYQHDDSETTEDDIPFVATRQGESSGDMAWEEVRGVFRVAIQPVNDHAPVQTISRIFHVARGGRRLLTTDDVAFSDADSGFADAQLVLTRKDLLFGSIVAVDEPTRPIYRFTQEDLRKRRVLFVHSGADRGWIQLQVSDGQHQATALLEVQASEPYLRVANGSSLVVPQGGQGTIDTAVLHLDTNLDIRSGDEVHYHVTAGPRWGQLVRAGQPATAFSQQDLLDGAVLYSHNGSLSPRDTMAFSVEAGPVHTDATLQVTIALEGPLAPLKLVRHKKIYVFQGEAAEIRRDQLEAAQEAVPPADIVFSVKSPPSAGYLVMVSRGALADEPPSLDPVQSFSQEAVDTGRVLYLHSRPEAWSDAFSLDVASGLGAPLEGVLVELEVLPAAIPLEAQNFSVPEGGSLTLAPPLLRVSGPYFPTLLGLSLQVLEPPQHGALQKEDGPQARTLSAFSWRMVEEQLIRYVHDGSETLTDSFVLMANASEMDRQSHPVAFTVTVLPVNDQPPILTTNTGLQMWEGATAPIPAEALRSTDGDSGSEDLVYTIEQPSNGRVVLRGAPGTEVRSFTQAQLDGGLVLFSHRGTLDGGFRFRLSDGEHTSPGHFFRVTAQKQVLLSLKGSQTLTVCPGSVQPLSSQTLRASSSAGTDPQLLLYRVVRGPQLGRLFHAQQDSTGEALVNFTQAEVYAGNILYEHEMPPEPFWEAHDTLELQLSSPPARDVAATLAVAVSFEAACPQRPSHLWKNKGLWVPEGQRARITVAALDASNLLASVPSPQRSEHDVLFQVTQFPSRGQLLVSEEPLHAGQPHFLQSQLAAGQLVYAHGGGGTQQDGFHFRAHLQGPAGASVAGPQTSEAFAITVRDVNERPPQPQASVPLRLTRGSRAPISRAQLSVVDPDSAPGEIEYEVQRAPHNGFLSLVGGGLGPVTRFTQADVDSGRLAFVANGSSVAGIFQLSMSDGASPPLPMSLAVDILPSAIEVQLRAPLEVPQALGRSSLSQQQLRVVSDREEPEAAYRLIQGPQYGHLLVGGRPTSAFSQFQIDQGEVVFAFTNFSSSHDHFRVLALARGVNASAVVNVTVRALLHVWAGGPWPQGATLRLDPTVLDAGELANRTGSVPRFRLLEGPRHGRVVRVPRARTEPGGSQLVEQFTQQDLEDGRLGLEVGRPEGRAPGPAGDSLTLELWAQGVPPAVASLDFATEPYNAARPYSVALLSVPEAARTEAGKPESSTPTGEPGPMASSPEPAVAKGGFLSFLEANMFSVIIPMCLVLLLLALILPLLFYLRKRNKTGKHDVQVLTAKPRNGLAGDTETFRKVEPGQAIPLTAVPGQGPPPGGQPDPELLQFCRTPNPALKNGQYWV

Binder	EC50 of T cell-mediated killing (LDH release) of LS-174T cells, human PBMCs, 28 h [1]	EC50 of T cell-mediated killing (LDH release) of MKN-45 cells, human PBMCs, 28 h [1]	EC50 [pM] of T cell-mediated killing (LDH release) of MV-3 cells, human PBMCs, about 24 h [2]	EC50 [pM] of T cell-mediated killing (LDH release) of WM266-4 cells, human PBMCs, about 24 h [2]	EC50 of T cell-mediated killing (LDH release) of MV-3 cells, human PBMCs, 21 h [3]	EC50 of T cell-mediated killing (LDH release) of WM266-4 cells, human PBMCs, 21 h [3]
2+1 IgG Crossfab, inverted; CL/CH1 exchange (CH1A1A/V9), anti-CEA/anti-huCD3 (bispecific antibody) chain 1: QVQLVQSGAEVKKPGASVKVSCKASGYTFTEFGMNWVRQAPGQGLEWMGWINTKTGEATYVEEFKGRVTFTTDTSTSTAYMELRSLRSDDTAVYYCARWDFAYYVEAMDYWGQGTTVTVSSASTKGPSVFPLAPSSKSTSGGTAALGCLVKDYFPEPVTVSWNSGALTSGVHTFPAVLQSSGLYSLSSVVTVPSSSLGTQTYICNVNHKPSNTKVDKKVEPKSCDKTHTCPPCPAPEAAGGPSVFLFPPKPKDTLMISRTPEVTCVVVDVSHEDPEVKFNWYVDGVEVHNAKTKPREEQYNSTYRVVSVLTVLHQDWLNGKEYKCKVSNKALGAPIEKTISKAKGQPREPQVCTLPPSRDELTKNQVSLSCAVKGFYPSDIAVEWESNGQPENNYKTTPPVLDSDGSFFLVSKLTVDKSRWQQGNVFSCSVMHEALHNHYTQKSLSLSPGK chain 2: DIQMTQSPSSLSASVGDRVTITCKASAAVGTYVAWYQQKPGKAPKLLIYSASYRKRGVPSRFSGSGSGTDFTLTISSLQPEDFATYYCHQYYTYPLFTFGQGTKLEIKRTVAAPSVFIFPPSDEQLKSGTASVVCLLNNFYPREAKVQWKVDNALQSGNSQESVTEQDSKDSTYSLSSTLTLSKADYEKHKVYACEVTHQGLSSPVTKSFNRGEC chain 3: DIQMTQSPSSLSASVGDRVTITCRASQDIRNYLNWYQQKPGKAPKLLIYYTSRLESGVPSRFSGSGSGTDYTLTISSLQPEDFATYYCQQGNTLPWTFGQGTKVEIKSSASTKGPSVFPLAPSSKSTSGGTAALGCLVKDYFPEPVTVSWNSGALTSGVHTFPAVLQSSGLYSLSSVVTVPSSSLGTQTYICNVNHKPSNTKVDKKVEPKSC chain 4: not shown	673 pM	115 pM	–	–	–	–
2+1 IgG Crossfab, inverted; CL/CH1 exchange (LC007/V9), anti-MCSP/anti-huCD3 (bispecific antibody) chain 1: DIVLTQSPSSLSASLGDRVTISCSASQGIRNYLNWYQQRPDGTVKLLIYYTSSLHSGVPSRFSGSGSGTDYSLTISNLEPEDIATYYCQQYSKLPWTFGGGTKLEIKRTVAAPSVFIFPPSDEQLKSGTASVVCLLNNFYPREAKVQWKVDNALQSGNSQESVTEQDSKDSTYSLSSTLTLSKADYEKHKVYACEVTHQGLSSPVTKSFNRGEC chain 2: EVQLQESGPGLVKPSQSLSLTCSVTGYSITSGYYWNWIRQFPGNKLEWMGYITYDGSNNYNPSLKNRISITRDTSKNQFFLKLNSVTTEDTATYYCADFDYWGQGTTLTVSSASTKGPSVFPLAPSSKSTSGGTAALGCLVKDYFPEPVTVSWNSGALTSGVHTFPAVLQSSGLYSLSSVVTVPSSSLGTQTYICNVNHKPSNTKVDKKVEPKSCDKTHTCPPCPAPEAAGGPSVFLFPPKPKDTLMISRTPEVTCVVVDVSHEDPEVKFNWYVDGVEVHNAKTKPREEQYNSTYRVVSVLTVLHQDWLNGKEYKCKVSNKALGAPIEKTISKAKGQPREPQVCTLPPSRDELTKNQVSLSCAVKGFYPSDIAVEWESNGQPENNYKTTPPVLDSDGSFFLVSKLTVDKSRWQQGNVFSCSVMHEALHNHYTQKSLSLSPGK chain 3: DIQMTQSPSSLSASVGDRVTITCRASQDIRNYLNWYQQKPGKAPKLLIYYTSRLESGVPSRFSGSGSGTDYTLTISSLQPEDFATYYCQQGNTLPWTFGQGTKVEIKSSASTKGPSVFPLAPSSKSTSGGTAALGCLVKDYFPEPVTVSWNSGALTSGVHTFPAVLQSSGLYSLSSVVTVPSSSLGTQTYICNVNHKPSNTKVDKKVEPKSC chain 4: not shown	–	–	4.1 pM	3.7 pM	–	–
2+1 IgG Crossfab; VH/VL exchange (LC007/V9), anti-MCSP/anti-huCD3 (bispecific antibody) chain 1: not shown chain 2: DIVLTQSPSSLSASLGDRVTISCSASQGIRNYLNWYQQRPDGTVKLLIYYTSSLHSGVPSRFSGSGSGTDYSLTISNLEPEDIATYYCQQYSKLPWTFGGGTKLEIKRTVAAPSVFIFPPSDEQLKSGTASVVCLLNNFYPREAKVQWKVDNALQSGNSQESVTEQDSKDSTYSLSSTLTLSKADYEKHKVYACEVTHQGLSSPVTKSFNRGEC chain 3: DIQMTQSPSSLSASVGDRVTITCRASQDIRNYLNWYQQKPGKAPKLLIYYTSRLESGVPSRFSGSGSGTDYTLTISSLQPEDFATYYCQQGNTLPWTFGQGTKVEIKSSASTKGPSVFPLAPSSKSTSGGTAALGCLVKDYFPEPVTVSWNSGALTSGVHTFPAVLQSSGLYSLSSVVTVPSSSLGTQTYICNVNHKPSNTKVDKKVEPKSCGGGGSGGGGSEVQLQESGPGLVKPSQSLSLTCSVTGYSITSGYYWNWIRQFPGNKLEWMGYITYDGSNNYNPSLKNRISITRDTSKNQFFLKLNSVTTEDTATYYCADFDYWGQGTTLTVSSASTKGPSVFPLAPSSKSTSGGTAALGCLVKDYFPEPVTVSWNSGALTSGVHTFPAVLQSSGLYSLSSVVTVPSSSLGTQTYICNVNHKPSNTKVDKKVEPKSCDKTHTCPPCPAPEAAGGPSVFLFPPKPKDTLMISRTPEVTCVVVDVSHEDPEVKFNWYVDGVEVHNAKTKPREEQYNSTYRVVSVLTVLHQDWLNGKEYKCKVSNKALGAPIEKTISKAKGQPREPQVCTLPPSRDELTKNQVSLSCAVKGFYPSDIAVEWESNGQPENNYKTTPPVLDSDGSFFLVSKLTVDKSRWQQGNVFSCSVMHEALHNHYTQKSLSLSPGK chain 4: EVQLVESGGGLVQPGGSLRLSCAASGYSFTGYTMNWVRQAPGKGLEWVALINPYKGVSTYNQKFKDRFTISVDKSKNTAYLQMNSLRAEDTAVYYCARSGYYGDSDWYFDVWGQGTLVTVSSASVAAPSVFIFPPSDEQLKSGTASVVCLLNNFYPREAKVQWKVDNALQSGNSQESVTEQDSKDSTYSLSSTLTLSKADYEKHKVYACEVTHQGLSSPVTKSFNRGEC	–	–	10 pM	12.4 pM	9.2 pM	33.1 pM
2+1 IgG Crossfab; CL/CH1 exchange (LC007/anti-CD3), anti-MCSP/anti-huCD3 (bispecific antibody) chain 1: DIVLTQSPSSLSASLGDRVTISCSASQGIRNYLNWYQQRPDGTVKLLIYYTSSLHSGVPSRFSGSGSGTDYSLTISNLEPEDIATYYCQQYSKLPWTFGGGTKLEIKRTVAAPSVFIFPPSDEQLKSGTASVVCLLNNFYPREAKVQWKVDNALQSGNSQESVTEQDSKDSTYSLSSTLTLSKADYEKHKVYACEVTHQGLSSPVTKSFNRGEC chain 2: EVQLQESGPGLVKPSQSLSLTCSVTGYSITSGYYWNWIRQFPGNKLEWMGYITYDGSNNYNPSLKNRISITRDTSKNQFFLKLNSVTTEDTATYYCADFDYWGQGTTLTVSSASTKGPSVFPLAPSSKSTSGGTAALGCLVKDYFPEPVTVSWNSGALTSGVHTFPAVLQSSGLYSLSSVVTVPSSSLGTQTYICNVNHKPSNTKVDKKVEPKSCDKTHTCPPCPAPEAAGGPSVFLFPPKPKDTLMISRTPEVTCVVVDVSHEDPEVKFNWYVDGVEVHNAKTKPREEQYNSTYRVVSVLTVLHQDWLNGKEYKCKVSNKALGAPIEKTISKAKGQPREPQVCTLPPSRDELTKNQVSLSCAVKGFYPSDIAVEWESNGQPENNYKTTPPVLDSDGSFFLVSKLTVDKSRWQQGNVFSCSVMHEALHNHYTQKSLSLSPGK chain 3: QAVVTQESALTTSPGETVTLTCRSSTGAVTTSNYANWVQEKPDHLFTGLIGGTNKRAPGVPARFSGSLIGDKAALTITGAQTEDEAIYFCALWYSNLWVFGGGTKLTVLSSASTKGPSVFPLAPSSKSTSGGTAALGCLVKDYFPEPVTVSWNSGALTSGVHTFPAVLQSSGLYSLSSVVTVPSSSLGTQTYICNVNHKPSNTKVDKKVEPKSC chain 4: not shown	–	–	11 pM	11.3 pM	–	–
2+1 IgG Crossfab, inverted; CL/CH1 exchange (LC007/anti-CD3), anti-MCSP/anti-huCD3 (bispecific antibody) chain 1: DIVLTQSPSSLSASLGDRVTISCSASQGIRNYLNWYQQRPDGTVKLLIYYTSSLHSGVPSRFSGSGSGTDYSLTISNLEPEDIATYYCQQYSKLPWTFGGGTKLEIKRTVAAPSVFIFPPSDEQLKSGTASVVCLLNNFYPREAKVQWKVDNALQSGNSQESVTEQDSKDSTYSLSSTLTLSKADYEKHKVYACEVTHQGLSSPVTKSFNRGEC chain 2: EVQLQESGPGLVKPSQSLSLTCSVTGYSITSGYYWNWIRQFPGNKLEWMGYITYDGSNNYNPSLKNRISITRDTSKNQFFLKLNSVTTEDTATYYCADFDYWGQGTTLTVSSASTKGPSVFPLAPSSKSTSGGTAALGCLVKDYFPEPVTVSWNSGALTSGVHTFPAVLQSSGLYSLSSVVTVPSSSLGTQTYICNVNHKPSNTKVDKKVEPKSCDKTHTCPPCPAPEAAGGPSVFLFPPKPKDTLMISRTPEVTCVVVDVSHEDPEVKFNWYVDGVEVHNAKTKPREEQYNSTYRVVSVLTVLHQDWLNGKEYKCKVSNKALGAPIEKTISKAKGQPREPQVCTLPPSRDELTKNQVSLSCAVKGFYPSDIAVEWESNGQPENNYKTTPPVLDSDGSFFLVSKLTVDKSRWQQGNVFSCSVMHEALHNHYTQKSLSLSPGK chain 3: QAVVTQESALTTSPGETVTLTCRSSTGAVTTSNYANWVQEKPDHLFTGLIGGTNKRAPGVPARFSGSLIGDKAALTITGAQTEDEAIYFCALWYSNLWVFGGGTKLTVLSSASTKGPSVFPLAPSSKSTSGGTAALGCLVKDYFPEPVTVSWNSGALTSGVHTFPAVLQSSGLYSLSSVVTVPSSSLGTQTYICNVNHKPSNTKVDKKVEPKSC chain 4: not shown	–	–	3 pM	7.1 pM	–	–
